# According to patent US20090192048A1, “METHOD OF PRODUCING A […] AGENT FOR BINDING A LIGAND” (priority 2005, published 2009):
# Ends that are not written are not given here.
# Key:
# Assay type in all cases: physicochemical
# [1] = Retention of peptides 2DOS-1 to 2DOS-16 on a hydrophobic surface (polypropylene microtitre plate wells), water wash; conditions: 400V scan
# Summary of the method: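 10 μM peptides, with TAMRA, in 10 mM tris-HCl pH 8.0 in 50% acetonitrile, dried overnight in polypropylene wells, then washed ten times with water. Retained peptide resuspended in the same solvent and fluorescence imaged (532 nm excitation, 580 nm filter). Quantified from 400 V scans.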
# [2] = Retention of peptides on Greiner polystyrene V-bottom wells; conditions: 400V scan
# Summary of the method: (§1)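 Peptides (5 μM) and TAMRA dried from 5 mM tris-HCl pH 8.0 in 75% acetonitrile in V-bottom wells; some wells washed 15 min at room temperature with 1 M NaCl in 10 mM tris-HCl pH 8.0. Residue redissolved in 10 mM tris-HCl pH 8.0/50% acetonitrile; retained fluorescence imaged with 532 nm excitation, 580 BP 30 filter.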
# [3] = Retention of peptides in V-bottomed polypropylene wells; conditions: V-bottom wells, 500V scan
# Summary of the method: (§2)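 1 μl of 10 μM peptide or TAMRA in 10 mM Tris-HCl pH 8.0/50% acetonitrile dried in the dark in flat- or V-bottomed polypropylene wells. Some wells washed 15 min at RT with 1 M NaCl in 10 mM Tris pH 8.0, others left untreated; all redissolved in 50 μl Tris/acetonitrile and fluorescence imaged at 532 nm excitation, 580 BP 30 filter.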
# [4] = Retention of peptides on Costar polypropylene V-bottom wells; conditions: 400V scan
# Summary of the method: as §1
# [5] = pH resistance of peptide 2DOS-2 deposited onto a polypropylene hydrophobic surface; conditions: for Retained fluorescence: 100 mM phosphate buffer 30 minutes
# Description: The pH resistance of peptide 2DOS-2 (see above) deposited onto a polypropylene hydrophobic surface was investigated:
# Twelve 50 μl aliquots of peptide 2DOS-2 in 10 mM tris-HCl (pH 8.0) in 50% (v/v) aqueous acetonitrile were dried down in the wells of a Costar microtitre plate.
# The peptide samples were allowed to evaporate to dryness in the dark.
# The dried peptide samples in the first eleven wells were incubated with 200 μl of 100 mM phosphate buffer for 30 minutes at room temperature according to the scheme shown in Table 3:
# All supernatants were pipetted off and the residual surface-bound peptides in all twelve wells were finally resuspended in 50 μl of 10 mM tris-HCl (pH 8.0) in 50% (v/v) aqueous acetonitrile and the microtitre plate was imaged at 200 μm resolution on a Typhoon Trio Plus variable mode imager (Amersham Biosciences) with the green (532 nm) laser and the 580 BP 30 filter at the PMT voltages indicated below and at normal sensitivity. The scan height was set at +3 mm and the sample was pressed during scanning.
# The fluorescence images were analysed using ImageQuant TL v2003.03 (Amersham Biosciences).
# Quantification data for peptide 2DOS-2 retention (using data from the 300V scan) are given in Table 8 and graphically in FIG. 19: […]
# [6] = Retention of peptides in flat-bottomed polypropylene wells; conditions: flat-bottom wells, 500V scan
# Summary of the method: as §2
# [7] = washed 15 minutes in 1 M NaCl in 10 mM tris-HCl (pH 8.0)
substance,measurement,setting,value
N-TAMRA-Phe-Asp- Phe-Ala-Phe-Ser- Phe-Lys-Phe-C ({TAMRA}-FDFAFSFKF) [Peptide 2DOS-2],Initial fluorescence (×10^3),[1]; 100 μl of 10 μM peptide before drying and washing,"32,492 ×10^3"
same,Recovered fluorescence (×10^3),"[1]; dried, washed ten times with 250 μl water, resuspended","15,704 ×10^3"
same,Percent retention,[2],64%
same,Untreated fluorescence,[2]; unwashed,"614,203"
same,Retained fluorescence,[2]; [7],"392,422"
same,Percent retention,[3],86%
same,Untreated fluorescence,[3]; unwashed,"9,495,183"
same,Retained fluorescence,[3]; [7],"8,127,309"
same,Percent retention,[4],94%
same,Untreated fluorescence,[4]; unwashed,"5,692,134"
same,Retained fluorescence,[4]; [7],"5,349,601"
same,Untreated fluorescence,"[5]; 300V scan, unwashed well","815,706"
same,Stability of retention on polypropylene over pH (in words),[5]; pH 4.51 to 8.52,stable over a broad range of pH values
same,Percent retention,[5]; wash pH 4.51,83%
same,Retained fluorescence,"[5]; wash pH 4.51, 300V scan","681,015"
same,Percent retention,[5]; wash pH 5.65,71%
same,Retained fluorescence,"[5]; wash pH 5.65, 300V scan","582,482"
same,Percent retention,[5]; wash pH 6.02,67%
same,Retained fluorescence,"[5]; wash pH 6.02, 300V scan","548,329"
same,Percent retention,[5]; wash pH 6.25,67%
same,Retained fluorescence,"[5]; wash pH 6.25, 300V scan","542,595"
same,Percent retention,[5]; wash pH 6.47,72%
same,Retained fluorescence,"[5]; wash pH 6.47, 300V scan","589,528"
same,Percent retention,[5]; wash pH 6.62,69%
same,Retained fluorescence,"[5]; wash pH 6.62, 300V scan","566,496"
same,Percent retention,[5]; wash pH 6.79,71%
same,Retained fluorescence,"[5]; wash pH 6.79, 300V scan","576,655"
same,Percent retention,[5]; wash pH 6.98,70%
same,Retained fluorescence,"[5]; wash pH 6.98, 300V scan","570,653"
same,Percent retention,[5]; wash pH 7.18,72%
same,Retained fluorescence,"[5]; wash pH 7.18, 300V scan","586,083"
same,Percent retention,[5]; wash pH 7.47,75%
same,Retained fluorescence,"[5]; wash pH 7.47, 300V scan","614,028"
same,Percent retention,[5]; wash pH 8.52,81%
same,Retained fluorescence,"[5]; wash pH 8.52, 300V scan","661,781"
same,Percent retention,[6],93%
same,Untreated fluorescence,[6]; unwashed,"15,820,680"
same,Retained fluorescence,[6]; [7],"14,665,720"
